Experiment [1] addresses T1, AnkG 38–855 (AnkG MBD-AI-c protein; MBD + partial AI-c) (rat, UniProt O70511-1 38-855).
T1 construct: numbers count on: rat AnkG NM_001033984.1 (MBD-UPA); also called AnkG WT; source: E. coli BL21 (DE3), purified (Ni2+-NTA, size exclusion)
T1 sequence (looked up): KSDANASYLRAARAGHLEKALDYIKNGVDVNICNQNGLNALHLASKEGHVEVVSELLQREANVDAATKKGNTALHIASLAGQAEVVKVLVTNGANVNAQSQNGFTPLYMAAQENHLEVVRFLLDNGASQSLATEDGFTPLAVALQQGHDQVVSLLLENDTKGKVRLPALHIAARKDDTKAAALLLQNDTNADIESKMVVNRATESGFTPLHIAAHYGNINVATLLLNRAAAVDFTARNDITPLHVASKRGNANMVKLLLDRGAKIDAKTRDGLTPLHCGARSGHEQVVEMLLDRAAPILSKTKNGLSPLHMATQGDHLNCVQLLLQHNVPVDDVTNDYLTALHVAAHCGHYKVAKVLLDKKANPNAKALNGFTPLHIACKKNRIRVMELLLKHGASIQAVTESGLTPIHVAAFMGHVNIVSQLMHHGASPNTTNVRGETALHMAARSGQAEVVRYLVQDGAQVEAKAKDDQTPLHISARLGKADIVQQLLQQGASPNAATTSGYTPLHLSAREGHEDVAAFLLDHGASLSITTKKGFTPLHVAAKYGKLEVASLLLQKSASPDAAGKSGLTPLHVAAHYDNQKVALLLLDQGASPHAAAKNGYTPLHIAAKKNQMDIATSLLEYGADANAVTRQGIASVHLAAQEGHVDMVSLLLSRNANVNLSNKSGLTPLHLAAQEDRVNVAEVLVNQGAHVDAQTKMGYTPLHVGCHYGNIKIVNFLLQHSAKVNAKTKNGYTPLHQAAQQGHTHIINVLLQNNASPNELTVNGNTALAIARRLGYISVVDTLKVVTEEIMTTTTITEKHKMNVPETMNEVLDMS
Nature of the experiment: ITC; VP-ITC MicroCal, 25 °C; proteins in 50 mM Tris-HCl pH 7.8, 1 mM DTT, 1 mM EDTA with 100 mM or 500 mM NaCl as required; who was titrated is not told. The settings on record: both partners purified. On the technique in general: Isothermal titration calorimetry measures the heat released or taken up as one component is titrated into another.

Experiment [2] has as its target T2, AnkB 28–847 (MBD + partial AI-c) (human, UniProt Q01484-2 28-847).
T2 construct: ankyrin-B (AnkB), human 220 kDa isoform, residues 28-847: MBD and a short 20-residue linker; numbers count on: human 220 kDa AnkB NM_020977.3; also called extended MBD with a short 20-residue linker; source: E. coli BL21 (DE3), purified (Ni2+-NTA, size exclusion)
T2 sequence (looked up): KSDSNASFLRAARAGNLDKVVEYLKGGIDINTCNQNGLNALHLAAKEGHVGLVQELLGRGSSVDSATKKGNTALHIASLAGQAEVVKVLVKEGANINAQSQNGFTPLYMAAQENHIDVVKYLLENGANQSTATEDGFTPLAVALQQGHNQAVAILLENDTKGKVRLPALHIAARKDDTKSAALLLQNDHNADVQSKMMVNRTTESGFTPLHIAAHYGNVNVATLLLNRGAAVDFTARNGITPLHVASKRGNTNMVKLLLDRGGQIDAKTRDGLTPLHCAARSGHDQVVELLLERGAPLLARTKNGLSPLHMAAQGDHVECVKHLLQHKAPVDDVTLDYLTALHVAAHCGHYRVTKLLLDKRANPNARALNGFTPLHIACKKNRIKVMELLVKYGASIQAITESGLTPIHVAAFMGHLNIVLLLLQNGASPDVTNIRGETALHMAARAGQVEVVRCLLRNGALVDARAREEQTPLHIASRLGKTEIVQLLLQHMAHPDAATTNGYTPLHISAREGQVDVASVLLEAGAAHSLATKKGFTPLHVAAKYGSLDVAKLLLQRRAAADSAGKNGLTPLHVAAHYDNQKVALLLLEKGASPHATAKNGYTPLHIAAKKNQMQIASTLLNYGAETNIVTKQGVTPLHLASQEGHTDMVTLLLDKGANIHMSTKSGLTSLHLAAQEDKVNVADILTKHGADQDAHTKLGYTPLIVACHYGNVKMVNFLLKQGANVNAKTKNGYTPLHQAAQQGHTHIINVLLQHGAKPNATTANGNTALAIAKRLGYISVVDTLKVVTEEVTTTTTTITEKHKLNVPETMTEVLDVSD
The experiment is described as above. The conditions noted are these: both partners purified.

B1: Nav1.2 (aa 1035–1129) (domain or fragment, mouse, UniProt B1AWN6 1035-1129, looked up)
chain: KALDEIKPLEDLNNKKDSCISNHTTIEIGKDLNYLKDGNGTTSGIGSSVEKYVVDESDYMSFINNPSLTVTVPIAVGESDFENLNTEEFSSESDM
notes: source: E. coli BL21 (DE3), purified (Ni2+-NTA, size exclusion)
Take B1: the binding result in experiment [1] and in experiment [2] was “binds” in each case.

Source of the values: paper PMC5779224, “Autoinhibition of ankyrin-B/G membrane target bindings by intrinsically disordered segments from the tail regions” (eLife, 2017).
